From FireProtDB (doi:10.1074/jbc.m707838200)
Where “and” joins values, the source holds several entries; their conditions need not be identical. Equal entries are not always repeated.

B1: T171V, Q9EYL5 (parent)
chain: MTKKLLTLFIVSMLILTACGKKESATTSSKNGKPLVVVYGDYKCPYCKELDEKVMPKLRKNYIDNHKVEYQFVNLAFLGKDSIVGSRASHAVLMYAPKSFLDFQKQLFAAQQDENKEWLTKELLDKHIKQLHLDKETENKIIKDYKTKDSKSWKAAEKDKKIAKDNHIKTTPTAFINGEKVEDPYDYESYEKLLKDKIK

Variants of: B1
Details: Staphylococcus aureus, pH 7, Thermal, CD, reversible: Yes, structure 3BCI, whole UniProt chain shown; for unfolding free energy: 25 °C, Hepes-NaOH 20 mM, NaCl 170 mM; for Tm / change of melting temperature, mutant - wild type (higher = more stable): Phosphate 100 mM

| Variant | unfolding free energy | Tm | change of melting temperature, mutant - wild type (higher = more stable) |
| --- | --- | --- | --- |
| MTKKLLTLFIVSMLILTACGKKESATTSSKNGKPLVVVYGDYKCPYCKELDEKVMPKLRKNYIDNHKVEYQFVNLAFLGKDSIVGSRASHAVLMYAPKSFLDFQKQLFAAQQDENKEWLTKELLDKHIKQLHLDKETENKIIKDYKTKDSKSWKAAEKDKKIAKDNHIKTVPTAFINGEKVEDPYDYESYEKLLKDKIK | 8.19 kcal/mol and 8.42 kcal/mol | 71.8 °C and 73 °C | -0.7 °C and 1.1 °C |
| MTKKLLTLFIVSMLILTACGKKESATTSSKNGKPLVVVYGDYKCPYCKELDEKVMPKLRKNYIDNHKVEYQFVNLAFLGKDSIVGSRASHAVLMYAPKSFLDFQKQLFAAQQDQNKEWLTKELLDKHIKQLHLDKETENKIIKDYKTKDSKSWKAAEKDKKIAKDNHIKTTPTAFINGEKVEDPYDYESYEKLLKDKIK | 6.13 kcal/mol | 74.2 °C | 2.3 °C |
